Experimental data from the RNAGym collection of RNA variant scans (doi:10.1073/pnas.2313332121).

B1: TPR t1 (parent)
chain: GACCAAUCUGCCCUCAGAGCUCGAGAACAUCUUCGGAUGCAGAGGAGGCAGGCUUCGGUGGCGCGAUAGCGCCAACGUCCUCAACCUCCAAUGCAUCCCACCACAUGAUGAUGCCUGAAGAGCCUUGGUUUUUUG

Variants of: B1
Test: polymerase ribozyme fitness, log enrichment relative to wild type (log ratio); higher = more active; in vitro selection for triplet polymerase activity
How it was run: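 Genotype fitness is the logarithm of its enrichment divided by wild-type enrichment, using inverse-variance-weighted averages of replicates. That logarithm is base 2. Enrichment was measured by Illumina sequencing of input and output libraries from one triplicate in vitro selection round, with frozen incubation at −7 °C, on PCR-built, transcribed mutant libraries of each subunit of a heterodimeric triplet polymerase ribozyme, retaining genotypes with ≥10 input reads and ≥1 read per output.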

Going from GACCAAUCUGCCCUCAGAGCUCGAGAACAUCUUCGGAUGCAGAGGAGGCAGGCUUCGGUGGCGCGAUAGCGCCAACGCCCUCAACCUCCAAGGCAUCCCACCACAUGAUGAUGUCUGAAGAGCCUUGGUUUUUUG to GACCAAUCUGCCCUCAGAGCUCGAGAACAUCUUCGGAUGCAGAGGAGGCAGGCUUCGGUGGCGCGAUAGCGCCAACGCCCUCAACCCCCAAUGCAUCCCACCACAUGAUGAUGCUUGAAGAGCCUUGGUUUUUUG, the “polymerase ribozyme fitness (log ratio)” value rises from -2.3 to -0.381.

Going from GACCAAUCUGCCCUCAGAGCUCGAGAACAUCUUCGGAUGCAGAGGAGGCAGGCUUCGGUGGCGCGAUAGCGCCAACGGCCUCAACCUCCAAUACAUCCCACCACAUGAUGAUGCCUGAAUAGCCUUGGUUUUUUG to GACCAAUCUGCCCUCAGAGCUCGAGAACAUCUUCGGAUGCAGAGGAGGCAGGCUUCGGUGGCGCGAUAGCGCCAACGGCCUCAACCUCCAAUGCAUCCCACCACAUGAUGAUACCUGAAGAGCGUUGGUUUUUUG, the “polymerase ribozyme fitness (log ratio)” value falls from -0.265 to -0.667.

Going from GACCAAUCUGCCCUCAGAGCUCGAGAACAUCUUCGGAUGCAGAGGAGGCAGGCUUCGGUGGCGCGAUAGCGCCAACGGCCUCAACCUUCAAGGCAUCCCACCACAUGAUGAUGCCUGAACAGCCUUGGUUUUUGG to GACCAAUCUGCCCUCAGAGCUCGAGAACAUCUUCGGAUGCAGAGGAGGCAGGCUUCGGUGGCGCGAUAGCGCCAACGCCCUCGACCUCCAAUGCAUCCCACCACACGAUGAUGCCUGAAGAGCCUUGGUUUUUUG, the “polymerase ribozyme fitness (log ratio)” value rises from -1.71 to -1.19.

Compared with GACCAAUCUGCCCUCAGAGCUCGAGAACAUCUUCGGAUGCAGAGGAGGCAGGCUUCGGUGGCGCGAUAGCGCCAACGGCCUCAACCUCCAAUGCAUCCCACCACAUGAUGAUUCCUGAAGAGCCUUGGUUUUUUG, GACCAAUCUGCCCUCAGAGCUCGAGAACAUCUUCGGAUGCAGAGGAGGCAGGCUUCGGUGGCGCGAUAGCGCCAACGGCCUCAACCUCCAAUGCAUCCCACCACAUGAUGAUACCUGAAGAGCCUUGGUUUUUUG is higher in “polymerase ribozyme fitness (log ratio)” value: -3.89 for the first, -1.05 for the second.

Going from GACCAAUCUGCCCUCAGAGCUCGAGAACAUCUUCGGAUGCAGAGGAGGCAGGCUUCGGUGGCGCGAUAGCGCCAACGACCUCAACCUCCAAUGCAUCCCACCACAUGAUGACGCCUGAAAAGCCUUGGUUUUUUG to GACCAAUCUGCCCUCAGAGCUCGAGAACAUCUUCGGAUGCAGAGGAGGCAGGCUUCGGUGGCGCGAUAGCGCCAACGCCCUCAACCUCCAAUGCAUCCCACCACAUGAUGAUGCCUGAAGAGCCUUUGUUUUUUG, the “polymerase ribozyme fitness (log ratio)” value falls from -0.475 to -1.04.

Compared with GACCAAUCUGCCCUCAGAGCUCGAGAACAUCUUCGGAUGCAGAGGAGGCAGGCUUCGGUGGCGCGAUAGCGCCAACGGCCUCAACCUCCAAUGCAUCCCACCACAUUAUGAUGCCUGAAGAGCCUUGGUUUUUUG, GACCAAUCUGCCCUCAGAGCUCGAGAACAUCUUCGGAUGCAGAGGAGGCAGGCUUCGGUGGCGCGAUAGCGCCAACGCCCUCAACCUCCAAUUCAUCCCACCACAUGAUGAUGCCUGAAGAGCAUUGGUUUUUUG is higher in “polymerase ribozyme fitness (log ratio)” value: -5.32 for the first, 0.632 for the second.

Compared with GACCAAUCUGCCCUCAGAGCUCGAGAACAUCUUCGGAUGCAGAGGAGGCAGGCUUCGGUGGCGCGAUAGCGCCAACGCCCUCAACCUCCAAUGUAUCCCACCACAUGAUGAUGCCUGAAGAGCCUUGGUUUUUUG, GACCAAUCUGCCCUCAGAGCUCGAGAACAUCUUCGGAUGCAGAGGAGGCAGGCUUCGGUGGCGCGAUAGCGCCAACGCCCUCAACAUCCAAUGCAUCCCACCACAUGAUGAUGCCUGAAGAGCCUUGGUUUUUUG is higher in “polymerase ribozyme fitness (log ratio)” value: -0.58 for the first, -0.372 for the second.

GACCAAUCUGCCCUCAGAGCUCGAGAACAUCUUCGGAUGCAGAGGAGGCAGGCUUCGGUGGCGCGAUAGCGCCAACGCCCUCAACCUCCAAUGCAUCCCACCACAUGAUGAUGCCUGUAGAGCCUUGGUUUUUUG and GACCAAUCUGCCCUCAGAGCUCGAGAACAUCUUCGGAUGCAGAGGAGGCAGGCUUCGGUGGCGCGAUAGCGCCAACGCCCUCAACCUCCAAUGCAUCCCACCACAUGAUGAAGCCUGAAGAGCCUUGGUUUUUUG are within 0.2 log units of each other in “polymerase ribozyme fitness (log ratio)” value: 0.929 for the first, 1.12 for the second.

Going from GACCAAUCUGCCCUCAGAGCUCGAGAACAUCUUCGGAUGCAGAGGAGGCAGGCUUCGGUGGCGCGAUAGCGCCAACGCCCUCAAGCUCCAAUGCAUCCCACCACAUGAUGAUGCCUGAAGAGCCUUGGUUUUUUG to GACCAAUCUGCCCUCAGAGCUCGAGAACAUCUUCGGAUGCAGAGGAGGCAGGCUUCGGUGGCGCGAUAGCGCCAACGCCCUCAACCUCCAAUGCAUCCCACCACAUGAUGAUGCCUAAAGAGCCUUGGUUUUUUG, the “polymerase ribozyme fitness (log ratio)” value rises from -1.82 to -1.35.

Going from GACCAAUCUGCCCUCAGAGCUCGAGAACAUCUUCGGAUGCAGAGGAGGCAGGCUUCGGUGGCGCGAUAGCGCCAACGCCCUCAACCUCCAAUGCAUCCCACCACAUGAUGAUGCCUCAAGAGCCUUGGUUUUUUG to GACCAAUCUGCCCUCAGAGCUCGAGAACAUCUUCGGAUGCAGAGGAGGCAGGCUUCGGUGGCGCGAUAGCGCCAACGGCCUCAACCUCCAAUACAUCCCACCACAUGAUGAUGCCUGAAGAGCCUUGGUUUUUUG, the “polymerase ribozyme fitness (log ratio)” value rises from -3.6 to -0.0742.

In the case of GACCAAUCUGCCCUCAGAGCUCGAGAACAUCUUCGGAUGCAGAGGAGGCAGGCUUCGGUGGCGCGAUAGCGCCAACGACCUCAACCUCCAAUGCAUCCCACCACAUGAUGAUGCCUGAAGAGCCUUGGUGUUUUG, the “polymerase ribozyme fitness (log ratio)” value is reported as -0.269.
